# Results from paper PMC7319273.
# What was measured:
# [1] = target: SARS-CoV-2 Spike protein extracellular domain (S-ECD), as used in ELISA and BLI (SARS-CoV-2) (UniProt P0DTC2)
# [2] = target: SARS-CoV-2 Spike protein extracellular domain (S-ECD), as used in ELISA and BLI (SARS-CoV-2) (UniProt P0DTC2); test: BLI
# 4A8 (human monoclonal antibody), sequence (VH): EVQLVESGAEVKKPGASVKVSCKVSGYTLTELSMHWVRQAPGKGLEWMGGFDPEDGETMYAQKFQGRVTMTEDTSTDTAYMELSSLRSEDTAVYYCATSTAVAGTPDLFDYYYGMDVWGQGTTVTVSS
# 4A8 (human monoclonal antibody), sequence (VL): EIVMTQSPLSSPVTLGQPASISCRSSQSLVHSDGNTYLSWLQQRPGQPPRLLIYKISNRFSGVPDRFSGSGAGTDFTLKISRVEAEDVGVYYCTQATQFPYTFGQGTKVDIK
substance,measurement,setting,value
4A8 (human monoclonal antibody),"neutralization of authentic SARS-CoV-2 in Vero-E6 cells, EC50",[1],0.61 mg/L
same,Kd,[2],< 2.14 nM
